Laboratory results taken from the supplement of paper PMC12764529.
± gives the half width of the 95% confidence interval.

Key:
[1] = folding stability dG unfold from trypsin proteolysis; higher = more stable
Summary of the method: (§1)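 Sequencing followed digestion of designed mini-proteins with trypsin and chymotrypsin, each at 11 concentrations in threefold dilutions together with a no-protease condition. The mini-proteins were under 80 residues, had no cysteine, sat in a PA-tagged cDNA display construct, and were kept only if AlphaFold2 dimer inter-PAE was above 15. From the counts, Bayesian fitting gave K50, and unfolding free energy was derived against a sequence-predicted unfolded-state K50 and a shared folded-state K50, per protease or combined.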

[2] = folding stability dG unfold from chymotrypsin proteolysis; higher = more stable
Summary of the method: as §1

[3] = folding stability dG unfold (combined trypsin and chymotrypsin); higher = more stable
Summary of the method: as §1

Sequence | folding stability dG unfold [1] [kJ/mol] | folding stability dG unfold [2] [kJ/mol] | folding stability dG unfold [3] [kJ/mol]
SAGGRKITINWNPNSGEIKVKIIWPDGEKEELPIPVPEGHDSPRQFADELKDNAQERFGEPVKIEITSAGGS [r8_166_TrROS] | -0.933 ± 0.628 | -3.32 ± 0.879 | -2.06 ± 1.67
SAGGRLVRIKVDIYSPGDGEPHEFEFLLHVDANGSVEIYFPNGKRIRIPPNMKVKIKDIEVLDPDQISAGGS [r16_223_TrROS] | 10.7 ± 0.372 | 14.4 ± 0.46 | 13.3 ± 0.586
SAGGRVRLEEVEILPPLEDPEDNPDRPLLLLRVRARVEYDTPEGPREEERELVLVVSPERLEEALEALSAGG [r13_149_TrMRF] | 3.32 ± 0.314 | 6.78 ± 0.544 | 5.74 ± 0.669
SAGGRYYFVRIEIYNPNNGRPFDIMIPFPGMPAEQVKEQVKEIADELAKQHGMDVKVKVEIQPLPPDSAGGS [r8_185_TrROS] | 7.23 ± 0.385 | 8.64 ± 0.293 | 8.17 ± 0.711
SAGGSAAMVPPEELAERLAEELAAKEGREVTEVTVEVLDPERGVVRVTVTFRSPEGLSTRTVVVDLSAGGSA [r15_32_JUSTAS] | 13.5 ± 0.238 | 13.35 ± 0.109 | 13.4 ± 0.205
SAGGSAAPLPPDETEVRVEYRYDPEKGVLVITTTTTRFTPEGGATPLETRPVVVEVTEEEKKKVELSAGGSA [r15_191_JUSTAS] | 5.22 ± 0.192 | 4.35 ± 0.397 | 4.88 ± 0.418
SAGGSAAPVSRVVELEFVLPPELVAEAVDALRKLPGVKASFELAEVLPDGYVRVRVTIEVPDDVDLSAGGSA [r15_441_TrMRF] | 14.5 ± 0.46 | 16.5 ± 0.305 | 15.9 ± 0.305
SAGGSAASVVEKTLSPDGTLFVTIKVDPEKKSVPFSITTPDGTPVTVTLPPNTTKTVRVPLGEAALSAGGSA [r15_336_JUSTAS] | -2.84 ± 1.17 | -2.31 ± 1.13 | -1.63 ± 0.628
SAGGSAAVDLSERPPALPVPLKVEVIPIPETGSSLVLVTHPDGFVLLARVNPEGEVELLSAFSLDDSAGGSA [r15_790_TrMRF] | 6.51 ± 0.276 | 12 ± 0.31 | 10.5 ± 0.586
SAGGSAAVTITSVPPDGTIRATATNPTNGETVTITFSPETSPEEAVAAIQKELGGPVPVTAVTPAGSAGGSA [r15_544_JUSTAS] | 4.08 ± 0.138 | 6.57 ± 0.259 | 5.94 ± 0.418
SAGGSADDVKIKVEYERNPENGYGQITVEVEDPDGKDLKVEIMFPNMTPEEMEKQAKDIAKEIAKKSAGGSA [r15_526_TrROS] | -2.2 ± 0.879 | 5.28 ± 0.795 | 3.01 ± 0.962
SAGGSADELVVRLRVRDPRTERPLEIDLPVPASLTPEEAIARAERLAAAFRSLGLETEVEVEPVPRSAGGSA [r15_268_TrMRF] | 6.09 ± 0.146 | 7.87 ± 0.176 | 7.22 ± 0.192
SAGGSADENKKPMYFIMVKIEIKFGGKDHKIEIMIPLDNVEKLAKNIAEELGMEIKDVTVSLYPIDSAGGSA [r15_535_TrROS] | 11.7 ± 0.544 | 17.5 ± 0.502 | 15.8 ± 0.628
SAGGSADNIEFKFPGIEEVTVWPDKIMFKLPNGYYYVITINNIDEIEIIEVIPPVPPPPPEDPDDKSAGGSA [r15_393_TrROS] | 9.95 ± 1.63 | 9.58 ± 0.46 | 10 ± 1.42
SAGGSADSVTFTDPNVEEQIVIPPYVIFKYPDGSVRIIAFDDGDKAEILEEIPFVPPLEPLHPDLESAGGSA [r15_393_TrMRF] | 3.52 ± 0.126 | 4.66 ± 0.318 | 4.44 ± 0.711
SAGGSADYVFVRIEVRDPKNKQPMSIMIPVPPDMTPDEAIEEAEMIANTFKEKGLEITVEVEPMPPSAGGSA [r15_268_TrROS] | 6.04 ± 1 | 6.52 ± 0.544 | 6.06 ± 0.92
SAGGSAEEAEELARRLAAELQAETGLEVTVEVRYDEETDTVVIRMTVRDRATGEERTLELTLRLPDSAGGSA [r15_464_TrROS_Hall] | 12.7 ± 0.264 | 15.6 ± 0.218 | 14.7 ± 0.247
SAGGSAEEEVVETEVVYDPETKELHVRTKVFKPKPEITIEVDMSLEEVKALLEELTGRKIDRVEIKSAGGSA [r15_101_TrROS_Hall] | 1.81 ± 0.146 | 7.03 ± 0.209 | 5.59 ± 0.351

Sequence | folding stability dG unfold [1] [kJ/mol] | folding stability dG unfold [2] [kJ/mol] | folding stability dG unfold [3] [kJ/mol]
SAGGSAEIAEKNGFKITVELHRYNDYIMVEIEIRWPGGQEFTVTIMIKIKIVPPKPPVDPNDPDNNSAGGSA [r15_843_TrROS] | 18.7 ± 2.55 | 18.7 ± 0.502 | 18.7 ± 2.13
SAGGSAEIEGLEFEIVEVTEVRVLPDGTVEITLRVRLPDGSYLRITITVSPDGTVTIDIELLPADESAGGSA [r15_559_TrROS_Hall] | 18.9 ± 0.879 | 17.5 ± 0.418 | 18.7 ± 0.753
SAGGSAEIEITVTVPPEMTEEEIKEQLEAELQRLTGEKVEIVDIRVEEVNGELTVTVKIKIEPAPPSAGGSA [r15_105_TrROS_Hall] | 12.7 ± 1.17 | 11.3 ± 0.837 | 11.9 ± 1.26
SAGGSAEIELPEGAKVEVTEVEVDGELYLRMKVVDEETGEVFVMEMRMRPDGEMEMEVKKIPKEELSAGGSA [r15_986_TrROS_Hall] | 5.45 ± 0.795 | 9.2 ± 1.42 | 7.74 ± 1.13
SAGGSAEIEVTVYYDPETGEILVLINFPDETKFEVAVEEFKKLFEKVEAVKLPDGSVLVRSPLKDASAGGSA [r15_1057_TrMRF] | 6.91 ± 0.502 | 7.12 ± 0.297 | 6.65 ± 0.502
SAGGSAEIWIWMPYDMIESLAKKAGDPNVKVEPVEPPDDNPGEPYWFKITLKDNGKPKREIEFWFPSAGGSA [r15_428_TrROS] | 5.61 ± 0.13 | 11.2 ± 0.188 | 9.34 ± 0.628
SAGGSAELAKALGLKVTVEVEEEDGYLTVKVTVTGPNGEEKTFTMVIKIEPLPPPKKVKKGDKKNKSAGGSA [r15_843_TrROS_Hall] | 10.2 ± 1.09 | 15.7 ± 0.544 | 15.1 ± 0.879
SAGGSAEPRPVVVVFEGTEEEVEELVQKVRDEGFAIDFKVEPLPDPRYYRATVIVRDPDGSWTAKLSAGGSA [r15_177_TrMRF] | 8.67 ± 0.192 | 8.82 ± 0.172 | 8.85 ± 0.167
SAGGSAETAIDLGPPNTTGVLEIEYFDENGNTRRATATFDPNPATISFNEPVEIPPNARIEIKPTSSAGGSA [r15_198_TrMRF] | -1.69 ± 0.879 | 3.59 ± 0.268 | 2.28 ± 0.586
SAGGSAETITVMIPPNFLKKLKDQGIKIPPGYPWITITVTYNPDGKIKIKVQIQPMPPVSPEDMKKSAGGSA [r15_322_TrROS] | 6.01 ± 0.381 | 11.4 ± 1.26 | 9.6 ± 1.42
SAGGSAETLVITLPPELEGLSEEELLALLKALLPPGAEITEIRVERLPDGSLRVTVTVRVPPPEEPSAGGSA [r15_451_TrROS_Hall] | 13.9 ± 1 | 9.12 ± 0.255 | 11.1 ± 0.628
SAGGSAEVRVVAEPLPDDYLLVLVEFDSPEVLPEALEAIPGVVEVRAYRFLEEGRPRYRVLALVPASAGGSA [r15_344_TrMRF] | 5.85 ± 0.1 | 8.47 ± 0.247 | 7.52 ± 0.251
SAGGSAEVVEREEYFEEKLPNGEKVKVRRIVTEITPIPGLPGYRVEYTVTVEIGDEWETYPLEVAESAGGSA [r15_465_JUSTAS] | 6.42 ± 0.335 | 6.32 ± 0.109 | 6.73 ± 0.268
SAGGSAEVYKVKIKIERVLPNGEKVEEEITIEVEGMSEEELLALARELAAEPGVRIKEIEIEKLPPSAGGSA [r15_550_TrROS_Hall] | 20.2 ± 1 | 19 ± 0.795 | 19.5 ± 1.59
SAGGSAFEEVKKKYPNAKWEKIGDEGDTAVYRLTFPGGEKILITVPTLPETDEPVVEVTYVPKGEESAGGSA [r15_547_JUSTAS] | 11.3 ± 0.389 | 11.89 ± 0.0711 | 11.8 ± 0.247
SAGGSAFKLTFKNMKIESKMPNPDGQKMIRIEWPDGLSIMIHPPNAIWIMPKDDPEMPPGDMVPIDSAGGSA [r15_692_TrROS] | 2.91 ± 1.05 | 3.27 ± 1.17 | 3.99 ± 1.17
SAGGSAFPTIAESPGVVKIEPLPDGTIKITFNTSEEAKEKIIEELKKLGNFNVEEDPEKPVLIVKKSAGGSA [r15_554_JUSTAS] | 7.13 ± 0.364 | 12.3 ± 0.247 | 10.9 ± 0.41
SAGGSAGAPLVLAEVELDPETGEVRIRVYDPVTGKVYEYTTPGSLADAIREIERETGIPITEVVVASAGGSA [r15_101_TrMRF] | 14.5 ± 0.414 | 15.6 ± 0.305 | 15.2 ± 0.322
